Usually EC50 stands for the concentration needed to bring the measured effect to its halfway point. Broadly, the Kd is the concentration at which binding is half-saturated.

Here are results for three molecules from patent EP4634231A1 (dated 2025).

In test [1] the target is T1, MUC-16 (CA125) expressed on SW1990 and OVCAR3 cancer cells (human, UniProt Q8WXI7 1-14507).
T1 construct: whole, on cells
As to the kind of experiment: flow cytometry on MUC16 expressing cancer cells.

The target of test [2] is T1, MUC-16 (CA125) expressed on SW1990 and …. The test is described as follows: flow cytometry saturation binding (MFI against concentration) on MUC-16 expressing SW1990 and OVCAR3 cells. (In flow cytometry, cells or beads pass a laser one at a time.)

B1: 89Zr-DFO-M16Ab, M16Ab conjugated with p-SCN-Bn-DFO and radiolabeled with 89Zr (antibody, V domains shown)
VH: QVQLVESGGGVVQPGGSLRLSCAASGFTFSTYGMHWVRQAPGKGLEWVAVISYDGSNKYYADSVKGRFTISRDNTNNSLYLQMSGLRAEDSAVYYCAKDVYGDFAVDSWGQGTLVTVSS
VL: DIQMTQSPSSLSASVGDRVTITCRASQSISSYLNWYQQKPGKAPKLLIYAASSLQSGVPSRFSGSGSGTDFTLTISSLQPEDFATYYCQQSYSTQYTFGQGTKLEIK
modifications: p-SCN-Bn-DFO chelator loaded with 89Zr; sites not stated
notes: also called 89Zr-DFO-M16Ab1; 89Zr-M16Ab1
In test [1], B1 registered an EC50 of 10 nM.

B2: M16Ab1, fully human anti-MUC16 monoclonal antibody, full-length IgG1 (antibody, V domains shown)
VH: QVQLVESGGGVVQPGGSLRLSCAASGFTFSTYGMHWVRQAPGKGLEWVAVISYDGSNKYYADSVKGRFTISRDNTNNSLYLQMSGLRAEDSAVYYCAKDVYGDFAVDSWGQGTLVTVSS
VL: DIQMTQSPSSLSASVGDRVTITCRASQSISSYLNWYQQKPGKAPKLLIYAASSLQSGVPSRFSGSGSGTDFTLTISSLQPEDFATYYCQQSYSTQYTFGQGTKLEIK
notes: also called MUC16 Ab1; MUC-16 Ab1
In test [2], B2 displayed a concentration for a half-maximal effect (EC50) of 9.1 nM and a Kd of 10.9 nM.

B3: DFO-M16Ab1, M16Ab1 IgG1 conjugated with p-SCN-Bn-DFO (antibody, V domains shown)
VH: QVQLVESGGGVVQPGGSLRLSCAASGFTFSTYGMHWVRQAPGKGLEWVAVISYDGSNKYYADSVKGRFTISRDNTNNSLYLQMSGLRAEDSAVYYCAKDVYGDFAVDSWGQGTLVTVSS
VL: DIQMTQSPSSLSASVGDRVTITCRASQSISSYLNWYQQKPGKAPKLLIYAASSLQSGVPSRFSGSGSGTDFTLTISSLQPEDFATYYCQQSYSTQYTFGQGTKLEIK
modifications: p-SCN-Bn-DFO (deferoxamine) conjugated, average of two DFO molecules per antibody; sites not stated
notes: also called DFO-MUC16 Ab 1; DFO-MUC16 AB1
As for B3, in test [2], it took 10.3 nM to reach a half-maximal effect (EC50) and the dissociation constant Kd came to 12.7 nM.
